Laboratory results: the Human Domainome abundance scans (Beltran et al. 2025)

B1: POU domain, class 3, transcription factor 1, residues 247 to 324; numbered along this chain, Q03052 (parent)
chain: EDAPSSDDLEQFAKQFKQRRIKLGFTQADVGLALGTLYGNVFSQTTICRFEALQLSFKNMCKLKPLLNKWLEETDSSS

Variants of: B1
Assay: abundance fitness (aPCA) (normalised: wild type 0, dead -1); higher = more abundant; growth selection in yeast, the domain comes from the species named
Conditions: Homo sapiens

Abundance fitness: each site, then its substitutions
L9: F -0.098, W -0.365, R -0.678, I -0.398, P -0.68, E -0.54, S -0.833, C -0.606, G -0.651, A -0.532, H -0.645, T -0.268, D -0.678, Q -0.355, K -0.399, V -0.095, M -0.084
A13: M -0.383, S -0.53, K -0.402, W -0.903, Y -0.505, D -1.07, G -0.828, I -0.43, E -0.416, F -0.972, C 0.113, T -0.691, V -0.047
R20: S -0.813, I -0.971, V -0.636, K -1.11, Q -0.733, L -0.637, T -0.815, M -0.915, G -0.896, D -0.645, W -0.973, P -0.744, F -0.353, E -0.845, A -0.653, H -0.508
F25: D -0.811, M -0.276, Q -0.511, G -0.859, I -0.404, W -0.536, V -0.31, S -0.505, C -0.217, R -0.342, N -0.531, L -0.12, P -0.965, Y 0.112, K -0.095
R19: H -0.456, E -0.36, N -0.071, K 0.259, M 0.023, G -0.495, I -0.212, P -0.79, Q -0.218, V -0.586, L -0.613, T -0.04, W -0.484, S -0.232
T26: P -0.919, Q -0.192, G -0.456, S -0.093, E -0.298, K -0.746, V -0.724, A -0.497, I -0.951, N -0.436, W -0.998, D -0.86, H -0.15, M -0.559, L -0.699
Q27: L -0.356, D -0.836, I 0.045, M -0.288, K -0.257, V -0.171, R -0.49, H 0.217, G -0.595, T -0.062, C 0.069, A -0.051, W -0.209, E 0.03, S -0.369, P -0.053, F -0.325
K22: G -0.349, Y 0.071, C -0.347, F -0.32, P -1.04, D 0.038, A 0.058, V -0.428, W -0.537, L -0.128, N 0.126, I -0.743, H 0.068, R -0.035, T -0.106
Q11: W -0.707, G -0.272, D 0.07, F -0.093, P -0.299, M -0.213, T 0.036, E -0.002, H 0.121, K 0.057, I 0.134, N 0.001, S -0.002, C -0.266, A -0.087, V -0.032, Y -0.269, R -0.149
G24: S -0.454, N -0.587, R -0.75, A -0.739, W -0.806, L -0.726, Q -0.796, P -0.73, I -1.02, D -0.7, T -0.805, V -1.01, K -0.423, M -0.78
D8: M 0.014, Y -0.826, G -0.095, S -0.415, L -0.491, I -0.529, H -0.276, K -0.397, F -0.481, E -0.076, V -0.217, N -0.294, R -0.179, T -0.454, Q -0.25, A -0.183, C -0.358
K17: C -0.868, I 0.048, M -0.269, E -0.8, H -0.066, R 0.007, S -0.354, P -0.667, T -0.001, W -0.879, Q 0.035, D -0.893, A -0.178
L23: A -0.226, M 0.124, R -0.313, V -0.686, W -0.224, T -0.647, S -0.59, C -0.629, E -0.47, Q -0.31, I -1, F -0.219, D -0.301, G -0.56
K14: N -0.211, L -0.159, P -0.573, W -0.419, I -0.19, Q 0.048, C -0.27, H 0.468, Y -0.233, R -0.195, T -0.03, E -0.053, D -0.78, F -0.386, S -0.492
I21: K -0.349, R -0.338, A -0.391, G -0.689, Y 0.147, E 0.005, D -0.527, H -0.64, Q -0.178, F -0.827, L -0.184, P -1.18, W -0.544, C -0.521, M -0.236
D29: A -0.134, C -0.592, F -0.835, G -0.241, L -0.547, H -0.213, K -0.057
Q18: S -0.027, C -0.428, V -0.316, L -0.25, T -0.034, P -1.16, H 0.031, M -0.472, W -0.245, R -0.204, E 0.028, F -0.304, N -0.276, Y -0.824, A 0.074, D -0.259, K 0.138
F12: W -0.362, L -0.547, V -0.55, Q -0.844, A -0.391, N -0.192, S -0.544, I -0.553, C -0.881, T -1.16, R -0.62, P -0.492, E -0.738, G -1.11
E10: S -0.433, H 0.243, A -0.178, C -0.118, K -0.301, Q -0.144, G -0.361, T -0.121, F -0.073, R -0.107, W -0.107, Y -0.244, M -0.037, P -0.432, I -0.456, N -0.024, D -0.136
A28: H -0.24, R 0.069, S -0.237, N -0.285, K -0.111, G -0.083, T -0.037, W -0.371, Q -0.225, L -0.405, C -0.239, I -0.608, P -0.758, M -0.149, D -0.317, Y -0.213, V -0.495, E -0.008
F16: T -0.429, V -0.515, A -0.779, E -0.585, Q -0.541, L -0.633, R -0.621, I -0.532, M -0.612, D -0.83, G -0.572, P -0.789, N -0.713, K -0.61, W -0.736
Q15: P -0.745, W -0.288, V -0.078, I 0.2, E -0.092, H -0.075, N 0.301, T -0.112, A -0.067, F -0.122, K -0.118, M 0.124, G -0.18, C -0.342, D 0, L -0.184, S -0.014, R -0.047
